131 substances from the supplement of paper PMC12042874 can be followed below.

± gives the uncertainty stated by the source.

A short description of the data set: amyloid nucleation score (Sup35N fusion, yeast selection) (log enrichment); library NNK3; higher = more nucleation; inactive = no reads after selection. The gist of the method:
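Libraries of peptides of 20 random codons fused to Sup35N were expressed in psi-negative yeast and induced 24 hours with 100 μM copper sulfate. Selection was 7 days at 30°C on medium lacking adenine and uracil, and plasmid inserts were Illumina-sequenced before and after selection. Nucleation score is the DiMSum log enrichment of output over input reads, centred on the mode score of non-aggregating sequences, and sequences with under 100 input reads were left out.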
Consider CRCHRLVNIPSMFWCLKFVG, for which the amyloid nucleation score entry was “inactive”. For NCICLSGHFGHL the value was 2.24 ± 0.091.

Regarding LTNRADE, the amyloid nucleation score result is “inactive”.

For QDYGYFNTYQFVRKWSSISL, the amyloid nucleation score result was “inactive”.

In the case of CFVGLRSGAVSCWGQGNYVA, the amyloid nucleation score entry was “inactive”. The substance GDFLNCAFLTKIFEHQNNFW registered an amyloid nucleation score of 1.85 ± 0.077. For KFSCSDNPE, the amyloid nucleation score entry is “inactive”.

The substance ITVVQANMSVWSTARVDMLD came in with an amyloid nucleation score of 1.12 ± 0.16.

Take PVSAH: the amyloid nucleation score amounted to 1.08 ± 0.17. The same measure for CHMWSEHSTTLMYYSKKY: 0.199 ± 0.41; for NYVCGVIAVNVVMNSSNNWR: 2.66 ± 0.051; for KVGSKVLEIFINTHYNWYCR: 0.145 ± 0.53. As to NLIWTVHLVVTSVISDLCVG, the amyloid nucleation score result was “inactive”. SFVHGKLILKFRSVNASRQS: the amyloid nucleation score result is “inactive”. The same measure for YAETPRFIRFY: -0.137 ± 0.78. The same measure for LYMSWAKTLFGECNCSHVLL: “inactive”; for SKFFLPQTEFPQKGLTPITA: “inactive”. VVNILW came in with an amyloid nucleation score of 1.82 ± 0.1.

STMDSIYQFL: the amyloid nucleation score entry is “inactive”. For the substance RRWTTEVKQVHDYCG, the amyloid nucleation score entry was “inactive”.

Take SLMYKCLINSILY: the amyloid nucleation score worked out at 1.97 ± 0.051. The same measure for RGDVWLELKGLFAIFCYSEL: 2.96 ± 0.062. The same measure for EYGSATVVWNHYFSPWVRFF: -0.213 ± 0.9; for KWSNQGRCEHSVNMFHREWR: 1.64 ± 0.09.

Take GECPRQRVSLM: the amyloid nucleation score result is “inactive”. For the substance DYTPGGCRPTTNCLS, the amyloid nucleation score entry is “inactive”.

For FELPMHTGV, the amyloid nucleation score result is “inactive”. With FWYSYQ, the amyloid nucleation score result was “inactive”.

On to VVMKGTRMVKVKERGSGKDY, for which the amyloid nucleation score result is “inactive”. In the case of QWFVRNFLFNPNALRYFRSS, the amyloid nucleation score result was “inactive”.

As to LTLNSKVTDM, the amyloid nucleation score result is “inactive”. Turning to NNAVQLYFYRLDMSYA, the amyloid nucleation score entry is “inactive”. On to VNDWWVSGW, for which the amyloid nucleation score result is “inactive”. In the case of VGMRNTSLRCLVLIG, the amyloid nucleation score result was “inactive”. With VGKFRLMIHVTSHYGFCDLF, the amyloid nucleation score entry is “inactive”. In the case of LDVVYRDIIDFRVLVESVYF, the amyloid nucleation score result is “inactive”. In the case of MQSAVNVV, the amyloid nucleation score entry was “inactive”.

For the substance DRYLCVVKCSVVTGIDQMSM, the amyloid nucleation score entry is “inactive”. For INSTRMAFVWR, the amyloid nucleation score result was “inactive”. On to GLVWVN, for which the amyloid nucleation score result is “inactive”. For TYPTYRVWVEEQCRLYDTNR the value was “inactive”; for RYNPFRIQELSMLFVLERTL, 0.014 ± 0.71. Regarding GRTVTVWMFASVRRGVTGYV, the amyloid nucleation score result was “inactive”. With SAIKYPLSRRCMWAGSSLLG, the amyloid nucleation score result was “inactive”. Consider DIWYKVLYMPVLTV, for which the amyloid nucleation score result was “inactive”. For CNMPGLVDDFLCHGICNNVV, the amyloid nucleation score result was “inactive”.

Take VAWAASARRHMYIPDRDSCA: the amyloid nucleation score result was “inactive”.

With VQHFRHQSASELV, the amyloid nucleation score result is “inactive”. FDRDWDMFFVRIVSQCGMLW: the amyloid nucleation score result is “inactive”. Turning to KRDLSVIGKCTLNNVSNHCA, the amyloid nucleation score result was “inactive”.

Regarding YYNVAMRCRSHHTRMSIFWC, the amyloid nucleation score result was “inactive”. Turning to LVKPNVDFVT, the amyloid nucleation score result is “inactive”. DIWFGSSKKSVMRV: the amyloid nucleation score result was “inactive”. The same measure for KWSKILAPFILFLKLKSNCS: “inactive”; for LSTENLLVYMWDRLNSILKG: “inactive”; for CGGANVLYRVQYDPWRS: “inactive”. For NRAGGICDKIRAQGYSYHSM the value was 0.475 ± 0.72; for WKEVGHGRSASPSALK, “inactive”; for SKLYYHNQLCFILMHTA, “inactive”.

Turning to YKFGVTPWLRFILSNVRKMM, the amyloid nucleation score result is “inactive”. Take WNESAGGFRYFPEDAKCDRA: the amyloid nucleation score result is “inactive”. For MTRCLSFWTRSQVLYFCWKL the value was “inactive”; for EWLGNCRNDCVMWLCYNMAS, “inactive”; for YDTAVYIIELGCNDNKSWVR, “inactive”. As to PRRTNKVARGGRHARVRKVE, the amyloid nucleation score result was “inactive”. YQVRV had an amyloid nucleation score of 0.056 ± 0.33.

IVYFPLILGAIIYWMSETHL: the amyloid nucleation score result is “inactive”. For RVYVAWTTCSADKKNSNIMQ the value was 0.939 ± 0.12; for SCKVVPCYHVDDMVEL, “inactive”. SPLRRCMCSFDDAKWWMCGE: the amyloid nucleation score was 0.803 ± 0.25. Regarding WLSYLLNG, the amyloid nucleation score stood at 1.91 ± 0.096. The same measure for KCIQWTGRDAYFEICYKQLD: 1.12 ± 0.11; for ESRMDRCCPSFGMCSLRYQK: “inactive”; for VKIYLSPTWEHIDRVYNCAL: 1.59 ± 0.059.

As to NSDNHYFQRTMTNFANGKGC, the amyloid nucleation score result was “inactive”. As to SSNESGLSFGSEFHMLGWHG, the amyloid nucleation score was determined as 0.075 ± 0.35. Take TRNYFNPVSRRGVTVSRGLY: the amyloid nucleation score entry was “inactive”. With FDDVGSNSLHCIMMHELLGV, the amyloid nucleation score result is “inactive”. Take LRSYFALINRLPCTCTRGGM: the amyloid nucleation score entry is “inactive”. Take RGCTGIKPLPTSWACAFSTS: the amyloid nucleation score entry was “inactive”. Take LYTDVEYRVWCVTFLVRPSK: the amyloid nucleation score result was “inactive”. Consider DTLLRKFWVIIVIGTALGSM, for which the amyloid nucleation score entry is “inactive”. Turning to SSLETLSSLFLIRLMELVSR, the amyloid nucleation score entry was “inactive”. For ISTDSVIHTTMEHSGE the value was “inactive”. In turn, CWFFV returned an amyloid nucleation score of 0.242 ± 0.39.

In the case of GVITISREDQYLAVGVIQWI, the amyloid nucleation score entry was “inactive”. Turning to WKRKRRLRELGITKVILRVL, the amyloid nucleation score entry was “inactive”.

TKYCSLPHDQDCVHKFITTV: the amyloid nucleation score entry was “inactive”. Consider GFGDRMDNPSVVSK, for which the amyloid nucleation score result is “inactive”. The same measure for VVCGANHLRIFFVNRVMWD: “inactive”; for SYSHYFILHHLRDSELSHCS: “inactive”. Regarding IRAYTDNDSNLSEFGVFTLV, the amyloid nucleation score result was “inactive”. Consider AYLCGANINL, for which the amyloid nucleation score entry is “inactive”. LSLNMVTDGIDDNGGNG: the amyloid nucleation score result was “inactive”. IWWNIYCFTVTSSVD yielded an amyloid nucleation score of 2.21 ± 0.095.

SFSRPVHSWAGHY: the amyloid nucleation score entry is “inactive”. With LPLLTYSSVSVRPLTSW, the amyloid nucleation score result was “inactive”. For TKTISGHCPVLMSVFWSMAL the value was “inactive”; for GSFMDHKTR, -0.382 ± 1.1; for VMMFSELGCCVLCGPLKDNM, 1.62 ± 0.06. For LYQRYMDMTSYCS the value was “inactive”; for AMVRNVYSCLRNRTCFLSSL, “inactive”; for TPMGQCAYHEPVNMVKKALR, “inactive”. For the substance LYLAMRENMWFEPEVNGCYG, the amyloid nucleation score result was “inactive”. For YNGFSLIRFILFAHG the value was “inactive”; for NPVRSKWYKVCCDNVGVYMD, “inactive”; for LSYSSRTRCMLLSLYWCSIR, “inactive”. For the substance GQWELGHFQCKVPYLLSQLL, the amyloid nucleation score result is “inactive”. Take AIMFLFLYTRGAYAYYLGLL: the amyloid nucleation score entry is “inactive”. On to LVNIDLFNDYRAVCGLLTRD, for which the amyloid nucleation score result was “inactive”.

Turning to LWYHWHNA, the amyloid nucleation score result is “inactive”. The same measure for GKFNTCA: “inactive”; for HFSMHITMLEFLTFNSARRV: 2.3 ± 0.075; for LRVVISLVIYMRSSTRICSV: “inactive”.

EYSFSLWSVSPAYTHITYGG showed an amyloid nucleation score of -0.192 ± 0.71. As for YYSGCVLIRRILYLGRVGSP, the amyloid nucleation score entry is “inactive”. As to GSSTYLTDLPTSPPSVFSSL, the amyloid nucleation score entry was “inactive”. As for GCKEL, the amyloid nucleation score entry was “inactive”.

Regarding IYGLLVDRRAVIFFEYMHLV, the amyloid nucleation score entry was “inactive”. With PAGTICGCRHGRLWNGPSRW, the amyloid nucleation score entry was “inactive”. As to HYDMNFIARVPLSQSL, the amyloid nucleation score entry was “inactive”.

As to WNCGSPPR, the amyloid nucleation score result was “inactive”. For SNALYCPWHWLIHQVV the value was “inactive”.

In the case of CFLRWNRFL, the amyloid nucleation score is 0.106 ± 1.1. On to PIMAWIWWRASDPMQKRLVG, for which the amyloid nucleation score result was “inactive”. CGDLMPNRYTLSSSNTMSNS: the amyloid nucleation score entry is “inactive”. The same measure for DDSLDVSCLEYRSAME: “inactive”; for CFPTTSK: “inactive”. Regarding QLCPHYFCKNKNATYGLTSR, the amyloid nucleation score result was “inactive”. For ERFNPDEVCE the value was “inactive”; for LLVLKYVMSRTWWSWGA, “inactive”.
